The chains are these.
B1: E3 ubiquitin-protein ligase Hakai (Mus musculus), Q9JIY2 (parent)
chain: MDHTDNELQGTNSSGSLGGLDVRRRIPIKLISKQASKVKPAPRTQRTVSRMPAKAPQGDEEGFDYNEEQRYDCKGGELFGNQRRFPGHLFWDFKINILGEKDDTPVHFCDKCGLPIKVYGRMIPCKHVFCYDCAILHEKKGDKMCPGCSDPVQRIEQCTRGSLFMCSIVQGCKRTYLSQRDLQAHINHRHMRAGKPVTRASLENVHPPIAPPPTDIPDRFIMPPDKHHMSHIPPKQHIMMPPPPLQHVPHEHYNQPHEDIRAPPAELSMAPPPPRSVSQETFRISTRKHSNLITVPIQDDSSSGAREPPPPAPAPAHHHPEYQGQPVVSHPHHIMPPQQHYAPPPPPPPPISHPMPHPPQAAGTPHLVYSQAPPPPMTSAPPPITPPPGHIIAQMPPYMNHPPPGPPPPQHGGPPVTAPPPHHYNPNSLPQFTEDQGTLSPPFTQPGGMSPGIWPAPRGPPPPPRMQGPPSQTPLPGPHHPDQTRYRPYYQ
B2: Cadherin-1 (Homo sapiens), P12830 (parent)
chain: MGPWSRSLSALLLLLQVSSWLCQEPEPCHPGFDAESYTFTVPRRHLERGRVLGRVNFEDCTGRQRTAYFSLDTRFKVGTDGVITVKRPLRFHNPQIHFLVYAWDSTYRKFSTKVTLNTVGHHHRPPPHQASVSGIQAELLTFPNSSPGLRRQKRDWVIPPISCPENEKGPFPKNLVQIKSNKDKEGKVFYSITGQGADTPPVGVFIIERETGWLKVTEPLDRERIATYTLFSHAVSSNGNAVEDPMEILITVTDQNDNKPEFTQEVFKGSVMEGALPGTSVMEVTATDADDDVNTYNAAIAYTILSQDPELPDKNMFTINRNTGVISVVTTGLDRESFPTYTLVVQAADLQGEGLSTTATAVITVTDTNDNPPIFNPTTYKGQVPENEANVVITTLKVTDADAPNTPAWEAVYTILNDDGGQFVVTTNPVNNDGILKTAKGLDFEAKQQYILHVAVTNVVPFEVSLTTSTATVTVDVLDVNEAPIFVPPEKRVEVSEDFGVGQEITSYTAQEPDTFMEQKITYRIWRDTANWLEINPDTGAISTRAELDREDFEHVKNSTYTALIIATDNGSPVATGTGTLLLILSDVNDNAPIPEPRTIFFCERNPKPQVINIIDADLPPNTSPFTAELTHGASANWTIQYNDPTQESIILKPKMALEVGDYKINLKLMDNQNKDQVTTLEVSVCDCEGAAGVCRKAQPVEAGLQIPAILGILGGILALLILILLLLLFLRRRAVVKEPLLPPEDDTRDNVYYYDEEGGGEEDQDFDLSQLHRGLDARPEVTRNDVAPTLMSVPRYLPRPANPDEIGNFIDENLKAADTDPTAPPYDSLLVFDYEGSGSEAASLSSLNSSESDKDQDYDYLNEWGNRFKKLADMYGGGEDD

In one assay the parent is B1. The conditions noted are these: with cadh1_human CDH1, P12830.
In the case of R189A, the “effect of a mutation on the interaction” value is reported as “disrupting interaction”.

A further assay covers variants of B1. The note with it: with src8_human CTTN.
For R189A, the “effect of a mutation on the interaction” value is given as “disrupting interaction”.

Variants of B1 are the subject of another assay. The conditions noted are these: with cadh1_human CDH1, P12830. The source holds these as a separate data set.
For H127A, the “effect of a mutation on the interaction” value is “disrupting interaction”.

The variants in a further assay derive from B1. The note with it: with src8_human CTTN. This is another data set of the same source.
For H127A, the “effect of a mutation on the interaction” value is on record as “disrupting interaction”.

Another assay covers variants of B1. The note with it: with cadh1_human CDH1, P12830. The source holds these as a separate data set.
Consider H190A, for which the “effect of a mutation on the interaction” value was “disrupting interaction”.

A further assay covers variants of B1. The note with it: with src8_human CTTN. The source holds these as a separate data set.
As to H190A, the “effect of a mutation on the interaction” value is on record as “disrupting interaction”.

The variants in a further assay derive from B1. The conditions noted are these: with cadh1_human CDH1, P12830. The source holds these as a separate data set.
For the variant Y176A, the “effect of a mutation on the interaction” value is recorded as “disrupting interaction”.

The variants in another assay derive from B1. The note with it: with src8_human CTTN. The source holds these as a separate data set.
Consider Y176A, for which the “effect of a mutation on the interaction” value is “disrupting interaction”.

In a further assay the parent is B2. The note with it: with hakai_mouse Cbll1, Q9JIY2.
Y754F: the “effect of a mutation on the interaction” value is recorded as “disrupting interaction”.

The variants in the next assay derive from B2. The note with it: with hakai_mouse Cbll1, Q9JIY2. This is another data set of the same source.
On to Y755F, for which the “effect of a mutation on the interaction” value was “disrupting interaction”.

Variants of B2 are the subject of another assay. The conditions noted are these: with hakai_mouse Cbll1, Q9JIY2. The source holds these as a separate data set.
For V752A, the “effect of a mutation on the interaction” value is “disrupting interaction”.

The next assay covers variants of B2. The conditions noted are these: with hakai_mouse Cbll1, Q9JIY2. The source holds these as a separate data set.
Regarding Y753F, the “effect of a mutation on the interaction” value is on record as “disrupting interaction”.

The variants in the next assay derive from B2. The note with it: with hakai_mouse Cbll1, Q9JIY2. The source holds these as a separate data set.
Turning to D750A, the “effect of a mutation on the interaction” value is given as “disrupting interaction”.

In another assay the parent is B2. The conditions noted are these: with hakai_mouse Cbll1, Q9JIY2. The source holds these as a separate data set.
Regarding E757A, the “effect of a mutation on the interaction” value is recorded as “disrupting interaction”.

Variants of B2 are the subject of the next assay. The conditions noted are these: with hakai_mouse Cbll1, Q9JIY2. This is another data set of the same source.
For the variant D756A, the “effect of a mutation on the interaction” value was “disrupting interaction”.
